Holding throughout (assay): cell-based or functional assay
The target of test [1] is T1, complement component C3 (human, UniProt P01024 23-1663).
For test [2], the target named is T1, complement component C3. This is another data set of the same source.
In test [3] the target is T1, complement component C3. This is another data set of the same source.

B1: CA28-AEEAc-Lys(mPEG40K-succinyl) (peptide)
peptide: ICVWQDWGAHRCTK
modifications: N-terminal acetyl; 1-methyl-tryptophan at position 4; disulfide Cys2-Cys12; AEEAc between Thr13 and Lys; C-terminal amide; linear 40 kD mPEG (NOF ME-400CS) on the Lys side chain
In the case of B1, the “IC50 (read off the curve), classical-pathway complement activation (C3b deposition ELISA, human plasma)” value (shortened to “IC50 (read off the curve)”) with complement component C3 [1] was around 0.7 µM.

B2: (CA28-AEEAc)8-PEG40k (peptide)
peptide: ICVWQDWGAHRCTK
modifications: N-terminal acetyl; 1-methyl-tryptophan at position 4; disulfide Cys2-Cys12; AEEAc between Thr13 and Lys; C-terminal amide; Lys side chain coupled to an arm of an eight-arm 40 kD PEG (NOF HGEO-400GS)
For B2, the “IC50 on a molar basis (corrected for 7.5 CA28 moieties per molecule), classical complement inhibition assay” value in the test with complement component C3 [2] was around 0.26 µM. In the test with complement component C3 [3], the “IC50, classical complement inhibition assay (C3b deposition ELISA, human plasma), as a function of CA28 moiety concentration” value was found to be 1.93 µM.

B3: CA28-AEEAc-Lys(mPEG40K-carbonyl) (peptide)
peptide: ICVWQDWGAHRCTK
modifications: not fully specified; N-terminal acetyl; 1-methyl-tryptophan at position 4; disulfide Cys2-Cys12; AEEAc between Thr13 and Lys; C-terminal amide; linear 40 kD mPEG (NOF ME-400TS) on the Lys side chain
For the molecule B3, in the test with complement component C3 [1], the “IC50 (read off the curve)” value was around 0.7 µM.

B4: CA28-AEEAc-Lys(mPEG40K-hexanoyl) (peptide)
peptide: ICVWQDWGAHRCTK
modifications: N-terminal acetyl; 1-methyl-tryptophan at position 4; disulfide Cys2-Cys12; AEEAc between Thr13 and Lys; C-terminal amide; linear 40 kD mPEG (NOF ME-400HS) on the Lys side chain
B4: the “IC50 (read off the curve)” value in the test with complement component C3 [1] is around 0.7 µM.

B5: CA28-AEEAc-Lys-(PEG40k) (peptide)
peptide: ICVWQDWGAHRCTK
modifications: not fully specified; N-terminal acetyl; 1-methyl-tryptophan at position 4; disulfide Cys2-Cys12; AEEAc between Thr13 and Lys; C-terminal amide; linear monofunctional 40 kD PEG (NOF ME-400GS) on the Lys side chain
Take B5: in the test with complement component C3 [1], the “IC50 (read off the curve)” value is around 0.7 µM.
